Assay results taken from US20240010684A1 (Bayer, published 2024).
*1 amine or outer side, *2 acyl side, *3 side chain or, on linkers, in order; H or OH if unused. Bridges are numbered along the chain shown (N, C = ends). Where no end group is shown, it is not given here. [ ]: non-standard residue; d: D form. Oic = O=C(O)[C@@H]1C[C@@H]2CCCC[C@@H]2N1; Adipoyl = O=C(CCCCC(=O)[*:2])[*:1]; Trx = NC[C@H]1CC[C@H](C(=O)O)CC1; tBuAla = CC(C)(C)C[C@H](N)C(=O)O; Pen = CC(C)(S)[C@H](N)C(=O)O; NMeC = CN[C@@H](CS)C(=O)O; Orn = NCCC[C@H](N)C(=O)O; Dab = NCC[C@H](N)C(=O)O; Abu = CC[C@H](N)C(=O)O; Dap = NC[C@H](N)C(=O)O; PEG2 = NCCOCCOCCC(=O)O; Ahx = NCCCCCC(=O)O; GABA = NCCCC(=O)O

T1: recombinant human MASP1 (amino acids 297-699, C-terminal His Tag) (human, UniProt P48740 297-699)
T1 sequence: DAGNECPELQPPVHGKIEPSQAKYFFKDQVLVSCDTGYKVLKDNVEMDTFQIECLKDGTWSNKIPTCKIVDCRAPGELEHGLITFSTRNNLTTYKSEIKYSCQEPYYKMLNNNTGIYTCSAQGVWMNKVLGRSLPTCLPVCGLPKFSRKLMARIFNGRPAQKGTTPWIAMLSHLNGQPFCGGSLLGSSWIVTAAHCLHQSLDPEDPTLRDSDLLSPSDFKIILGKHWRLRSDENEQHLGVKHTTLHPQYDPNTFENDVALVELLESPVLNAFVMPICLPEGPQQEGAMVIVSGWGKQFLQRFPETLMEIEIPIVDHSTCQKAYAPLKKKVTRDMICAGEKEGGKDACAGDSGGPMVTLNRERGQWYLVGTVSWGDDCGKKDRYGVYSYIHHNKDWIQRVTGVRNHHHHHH

T2: recombinant rat MASP1 (amino acids 302-704, C-terminal His Tag) (rat, UniProt Q8CHN8 302-704)
T2 sequence: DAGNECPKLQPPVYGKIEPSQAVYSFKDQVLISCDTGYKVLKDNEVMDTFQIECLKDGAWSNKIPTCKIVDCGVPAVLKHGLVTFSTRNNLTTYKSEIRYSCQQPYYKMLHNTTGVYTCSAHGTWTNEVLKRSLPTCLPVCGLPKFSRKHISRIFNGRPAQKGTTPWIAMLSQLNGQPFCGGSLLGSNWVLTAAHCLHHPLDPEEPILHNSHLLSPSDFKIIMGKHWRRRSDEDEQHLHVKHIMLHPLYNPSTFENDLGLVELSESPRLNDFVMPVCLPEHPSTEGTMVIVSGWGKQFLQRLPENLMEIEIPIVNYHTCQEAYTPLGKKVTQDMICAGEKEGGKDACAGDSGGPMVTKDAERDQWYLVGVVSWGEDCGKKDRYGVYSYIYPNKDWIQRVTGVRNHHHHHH


Experiments:
Experiment in all cases: cell-based or functional assay
[1] = biological target: recombinant human MASP2 (amino acids 297-686, C-terminal His Tag) (human, UniProt O00187 297-686)
[2] = biological target: T1, recombinant human MASP1 (amino acids …)
[3] = biological target: T2, recombinant rat MASP1 (amino acids …)
[4] = biological target: recombinant rat MASP2 (amino acids 296-685, C-terminal His Tag) (rat, UniProt Q9JJS8 296-685)
Sequence of recombinant rat MASP2 (amino acids 296-685, C-terminal His Tag) (Q9JJS8 other isoform, or with tags, fused parts or gaps limits assumed): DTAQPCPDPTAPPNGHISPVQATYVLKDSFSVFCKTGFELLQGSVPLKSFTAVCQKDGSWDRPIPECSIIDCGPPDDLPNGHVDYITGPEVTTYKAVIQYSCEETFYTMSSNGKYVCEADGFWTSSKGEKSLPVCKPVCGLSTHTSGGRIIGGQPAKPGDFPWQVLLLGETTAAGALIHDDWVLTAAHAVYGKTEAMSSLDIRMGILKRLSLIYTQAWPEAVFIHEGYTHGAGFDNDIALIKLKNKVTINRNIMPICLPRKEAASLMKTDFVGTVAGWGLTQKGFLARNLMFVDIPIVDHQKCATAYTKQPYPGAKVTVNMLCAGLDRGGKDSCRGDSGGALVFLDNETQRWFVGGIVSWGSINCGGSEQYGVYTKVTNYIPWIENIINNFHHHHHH

Sequence of recombinant human MASP2 (amino acids 297-686, C-terminal His Tag) (O00187 other isoform, or with tags, fused parts or gaps limits assumed): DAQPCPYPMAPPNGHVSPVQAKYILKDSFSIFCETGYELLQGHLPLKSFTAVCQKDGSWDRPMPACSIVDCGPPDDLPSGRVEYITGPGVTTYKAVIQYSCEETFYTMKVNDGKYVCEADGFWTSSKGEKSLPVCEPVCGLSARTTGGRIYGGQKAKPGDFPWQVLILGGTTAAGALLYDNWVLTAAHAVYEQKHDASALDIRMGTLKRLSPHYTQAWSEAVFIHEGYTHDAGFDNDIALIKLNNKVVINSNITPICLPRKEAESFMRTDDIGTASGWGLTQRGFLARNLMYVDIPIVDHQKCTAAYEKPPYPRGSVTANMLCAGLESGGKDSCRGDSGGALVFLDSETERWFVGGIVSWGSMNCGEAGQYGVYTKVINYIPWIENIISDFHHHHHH

human MASP2 IC50 [1] | human MASP1 IC50 [2] | rat MASP1 IC50 [3] | rat MASP2 IC50 [4] | Binder
900 nM | 46 nM |  |  | cyclo([Dap]ICSRS[tBuAla]PPI[Pen]IP) (disulfide 3-11; also: TFA salt) [Example 55: (Dap)**-IC+SRS-((tBu)A)-PPI-(Pen)+-IP**]
140 nM | 19 nM |  |  | [Ahx]GICSRSLP[Oic]I[Pen]IPD-NH2 (disulfide 4-12; lactam N-15; also: TFA salt) [Example 49: (Ahx)**-GIC+SRSLP-(Oic)-I-(Pen)+-IPD++-NH2]
200 nM | 13 nM |  |  | AGGICSRSLP[Oic]I[Pen]IPD-NH2 (disulfide 5-13; lactam N-16; also: TFA salt) [Example 42: A**GGIC+SRSLP-(Oic)-I-(Pen)+-IPD++-NH2]
120 nM | 170 nM |  |  | cyclo(GSGICSRSLPPICIPDS) (disulfide 5-13; not fully specified; printed as G**SGIC+SRSLPPIC+IPDS**; also: TFA salt) [Example 21: G**SGIC+SRSLPPIC+IPDS**]
5.4 nM | 58 nM | 330 nM | 13 nM | Adipoyl-ICSRS[tBuAla]PPI[Pen]IPD[Dap]-NH2 (lactam (positions not given here); disulfide 2-10; not fully specified (bridges); also: TFA salt) [Example 60: (Adipic acid)**-IC+SRS-((tBu)A)-PPI-(Pen)+-IPD-(Dap)++-NH2]
74 nM | 92 nM |  |  | cyclo([Ahx]AICSRSLPPICIPD) (disulfide 4-12; also: TFA salt) [Example 45: (Ahx)**-AIC+SRSLPPIC+IPD**]
44 nM | 20 nM |  |  | cyclo([Ahx][Abu]ICSRS[tBuAla]PPI[Pen]IPD) (disulfide 4-12; also: TFA salt) [Example 38: (Ahx)**-(Abu)-IC+SRS-((tBu)A)-PPI-(Pen)+-IPD**]
340 nM | 46 nM |  |  | cyclo([Dap][Dap]ICSRS[tBuAla]PPI[Pen]I) (disulfide 4-12; also: TFA salt) [Example 57: (Dap)**-(Dap)-IC+SRS-((tBu)A)-PPI-(Pen)+-I**]
70 nM | 10 nM |  |  | [Ahx]GICSRS[tBuAla]PPI[Pen]IPD-NH2 (disulfide 4-12; lactam N-15; also: TFA salt) [Example 48: (Ahx)**-GIC+SRS-((tBu)A)-PPI-(Pen)+-IPD++-NH2]
5.7 nM | 11 nM | 48.6 nM |  | cyclo([Ahx][Trx]ICSRS[tBuAla]PPI[Pen]IP) (disulfide 4-12; also: TFA salt) [Example 59: (Ahx)**-(TXA)-IC+SRS-((tBu)A)-PPI-(Pen)+-IP**]
210 nM | 110 nM |  |  | cyclo([PEG2]GICSRSLPPICIPD) (disulfide 4-12; also: TFA salt) [Example 24: (PEG1(10 atoms))**-GIC+SRSLPPIC+IPD**]
91 nM | 190 nM |  |  | KGICSRSLPPICIPD (lactam 1-C; disulfide 4-12; also: TFA salt) [Example 22: K++GIC+SRSLPPIC+IPD**]
63.5 nM | 22 nM |  |  | cyclo([Ahx]AICSRS[tBuAla]PPI[NMeC]IPD) (disulfide 4-12; also: TFA salt) [Example 32: (Ahx)**-AIC+SRS-((tBu)A)-PPI-((N-Me)C)+-IPD**]
37.5 nM | 9.1 nM |  |  | cyclo([Ahx]AICSRS[tBuAla]PPI[Pen]IPD) (disulfide 4-12; also: TFA salt) [Example 27: (Ahx)**-AIC+SRS-((tBu)A)-PPI-(Pen)+-IPD**]
160 nM | 19 nM | 170 nM |  | cyclo(AGGICSRSLP[Oic]I[Pen]IP[dD]) (disulfide 5-13; also: TFA salt) [Example 98: A**GGIC+SRSLP-(Oic)-I-(Pen)+-IPd**]
68 nM | 8.6 nM |  |  | cyclo(AGGICSRS[tBuAla]PPI[Pen]IPD) (disulfide 5-13; also: TFA salt) [Example 29: A**GGIC+SRS-((tBu)A)-PPI-(Pen)+-IPD**]
 | 4.1 nM | 63 nM | 24 nM | cyclo([GABA]ICSRS[tBuAla]PPI[Pen]IPD) (disulfide 3-11; also: TFA salt) [Example 35: (Gamma-Abu)**-IC+SRS-((tBu)A)-PPI-(Pen)+-IPD**]
140 nM | 16 nM |  |  | GAICSRSLPPICIPD-NH2 (disulfide 4-12; lactam N-15; also: TFA salt) [Example 37: G**AIC+SRSLPPIC+IPD++-NH2]
89 nM | 56 nM |  |  | cyclo([Ahx]AICSRS[tBuAla]PPICIPD) (disulfide 4-12; also: TFA salt) [Example 46: (Ahx)**-AIC+SRS-((tBu)A)-PPIC+IPD**]
610 nM | 60 nM |  |  | cyclo([Ahx]AICSRSLP[Oic]ICIP) (disulfide 4-12; also: TFA salt) [Example 25: (Ahx)**-AIC+SRSLP-(Oic)-IC+IP**]
120 nM | 6.7 nM |  |  | [Ahx]AICSRSLP[Oic]I[Pen]IPD-NH2 (disulfide 4-12; lactam N-15; also: TFA salt) [Example 43: (Ahx)**AIC+SRSLP-(Oic)-I-(Pen)+-IPD++-NH2]
17 nM | 6.3 nM |  |  | cyclo([Ahx]ICSRS[tBuAla]PPI[Pen]IP) (disulfide 3-11; also: TFA salt) [Example 51: (Ahx)**-IC+SRS-((tBu)A)-PPI-(Pen)+-IP**]
170 nM | 12 nM |  |  | cyclo(AGAICSRS[tBuAla]PPI[Pen]IPD) (disulfide 5-13; also: TFA salt) [Example 26: A**GAIC+SRS-((tBu)A)-PPI-(Pen)+-IPD**]
230 nM | 4.7 nM |  |  | [Orn]AICSRS[tBuAla]PPI[NMeC]IPD-NH2 (lactam 1-15; disulfide 4-12; also: TFA salt) [Example 44: (Orn)++-AIC+SRS-((tBu)A)-PPI-((N-Me)C)+-IPD++-NH2]
20 nM | 180 nM |  |  | cyclo([Dap][Dap]GICSRSLPPICIPD) (disulfide 5-13; also: TFA salt) [Example 23: (Dap)**-(Dap)-GIC+SRSLPPIC+IPD**]
98 nM | 11 nM |  |  | cyclo([PEG2]AICSRS[tBuAla]PPI[Pen]IPD) (disulfide 4-12; also: TFA salt) [Example 34: (PEG1(10 atoms))**-AIC+SRS-((tBu)A)-PPI-(Pen)+-IPD**]
210 nM | 13 nM |  |  | CAICSRS[tBuAla]PPI[Pen]IPDC-NH2 (disulfide 1-16, 4-12; also: TFA salt) [Example 50: C++AIC+SRS-((tBu)A)-PPI-(Pen)+-IPDC++-NH2]
190 nM | 5.9 nM |  |  | AGAICSRSLP[Oic]I[Pen]IPD-NH2 (disulfide 5-13; lactam N-16; also: TFA salt) [Example 41: A**GAIC+SRSLP-(Oic)-I-(Pen)+-IPD++-NH2]
130 nM | 140 nM |  |  | cyclo([Ahx]GICSRSLPPICIPD) (disulfide 4-12; also: TFA salt) [Example 13: (Ahx)**-GIC+SRSLPPIC+IPD**]
1100 nM | 86 nM |  |  | cyclo([Dab]ICSRS[tBuAla]PPI[Pen]IP) (disulfide 3-11; also: TFA salt) [Example 56: (Dab)**-IC+SRS-((tBu)A)-PPI-(Pen)+-IP**]
